This test addresses wild-type human TRAILR1 (human), O00220. As to the kind of experiment: radioligand binding; competition on cells: 4x10^5 murine fibroblasts expressing the (chimeric) TRAIL receptor in PFA (PBS, 2% FCS, 0.002% sodium azide), 83 ng/ml 125I-TRAIL with or without unlabeled recombinant human TRAIL (83-5300 ng/ml), 4 hours on ice; cells spun through phthalate oil; 68 kDa used for TRAIL. As to conditions: remark: other sources report otherwise.

B1: Flag-tagged recombinant human TRAIL (sTRAIL), unlabeled, P50591 95-281 (ligand)
chain: TSEETISTVQEKQQNISPLVRERGPQRVAAHITGTRGRSNTLSSPNSKNEKALGRKINSWESSRSGHSFLSNLHLRNGELVIHEKGFYYIYSQTYFRFQEEIKENTKNDKQMVQYIYKYTSYPDPILLMKSARNSCWSKDAEYGLYSIYQGGIFELKENDRIFVSVTNEHLIDMDHEASFFGAFLVG
What is called IC50 is the point on the concentration scale where inhibition reaches its midpoint. Take B1: the IC50 is 17.7 nM.

Source of the values: paper PMC3420232.
